The results in this text go back to US20250243286A1 (SIXPEAKS BIO, published 2025).

The target of assay [1] is T1, ActRIIA and ActRIIB (on TGFB/SMAD SBE Reporter HEK293 cells) (human). The assay is described as follows: cell-based or functional assay.
For assay [2], the target named is T2, human ActRIIB (human, UniProt Q13705 19-137, limits assumed).
T2 construct: antigen in MSD-SET; also called ACVR2B; ActR2B
T2 sequence: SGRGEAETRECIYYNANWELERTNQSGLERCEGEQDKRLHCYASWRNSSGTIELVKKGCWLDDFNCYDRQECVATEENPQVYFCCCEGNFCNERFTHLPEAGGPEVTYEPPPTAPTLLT
The experiment in a line: MSD-SET.

Assay [3] addresses T2, human ActRIIB. The experiment in a line: MSD-SET. The source holds these as a separate data set.
The target in assay [4] is T2, human ActRIIB. The assay is described as follows: MSD-SET, preliminary.
In assay [5] the target is T1, ActRIIA and ActRIIB (on TGFB/SMAD SBE …). The assay is described as follows: cell-based or functional assay. The source holds these as a separate data set.
Assay [6] shares this target. The experiment in a line: cell-based or functional assay. The source holds these as a separate data set.
The target of assay [7] is T3, human ActRIIA (human, UniProt P27037 20-135, limits assumed).
T3 construct: antigen in MSD-SET; also called ACVR2A; ActR2A
T3 sequence (P27037 20-135 limits assumed): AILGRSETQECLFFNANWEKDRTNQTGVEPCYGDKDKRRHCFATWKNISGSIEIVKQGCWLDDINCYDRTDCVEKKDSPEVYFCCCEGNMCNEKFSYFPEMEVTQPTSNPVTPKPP
The assay is described as follows: MSD-SET.

Assay [8] deals with T2, human ActRIIB. The assay is described as follows: MSD-SET. The source holds these as a separate data set.
Assay [9] addresses T3, human ActRIIA. The assay is described as follows: MSD-SET, Fab KD over IgG KD.
Assay [10] deals with T2, human ActRIIB. The experiment in a line: MSD-SET, Fab KD over IgG KD.

Positions count from the first letter of the chain named. Like-named read-outs stand apart in the source and are kept apart here.

B1: Antibody Ofaschlupfer (antibody, V domains shown)
VH: QVQLVQSGAEVKKPGSSVKVSCKASGYTFTSSYINWVRQAPGQGLEWMGTINAVSGSTSYAQKFQGRVTITADTSTSTAYMELSSLRSEDTAVYYCARGGWFDYWGQGTLVTVSS
VL: QSALTQPRSVSGSPGQSVTISCTGTSSDVGSKNYVNWYQQHPGKAPKLMIYGVSKRESGVPDRFSGSKSGNTASLTISGLQAEDEADYYCGTFAGGKYYGVFGGGTKLTVL
notes: full-length IgG
In [1], B1 registered an IC50, Activin SMAD RGA of 0.32 nM; an IC50 fold difference to bimagrumab, Activin SMAD RGA of 1 fold; an IC90, Activin SMAD RGA of 3.02 nM; an IC90 fold difference to bimagrumab, Activin SMAD RGA of 2.1 fold. In assay [1], the IC95, Activin SMAD RGA was 7.07 nM; the IC95 fold difference to bimagrumab, Activin SMAD RGA was 21.8 fold; the IC99, Activin SMAD RGA amounted to 47.8 nM; the IC99 fold difference to bimagrumab, Activin SMAD RGA worked out at 147 fold. In addition, binding in assay [2] was put at a Kd of 0.0029 nM. Also, binding in assay [3] was characterised by a dissociation constant (Kd) of 0.0029 nM. Besides, the Kd (in general, the constant that tells how readily two partners part at equilibrium) in [4] was 0.0277 nM. Further, in assay [5], the IC50, Myostatin SMAD RGA stood at 0.7 nM; the IC50 fold difference to bimagrumab, Myostatin SMAD RGA turned out to be 0.8 fold; the IC90, Activin SMAD RGA was 2.27 nM; the IC90, Myostatin SMAD RGA was 14.4 nM. For the same molecule, in assay [5], the IC90 fold difference to bimagrumab, Activin SMAD RGA amounted to 4.1 fold; the IC90 fold difference to bimagrumab, Myostatin SMAD RGA was determined as 0.9 fold; the IC95, Activin SMAD RGA is 4.97 nM; the IC95, Myostatin SMAD RGA was determined as 55.2 nM. Further, in [5], the IC95 fold difference to bimagrumab, Activin SMAD RGA came to 7.6 fold; the IC95 fold difference to bimagrumab, Myostatin SMAD RGA came out at 1 fold; the IC99, Activin SMAD RGA was 28.1 nM; the IC99, Myostatin SMAD RGA was 1240 nM. In assay [5], this molecule came in with an IC99 fold difference to bimagrumab, Activin SMAD RGA of 29.6 fold and an IC99 fold difference to bimagrumab, Myostatin SMAD RGA of 2.2 fold.

B2: Rippla Fab (Fab, V domains shown)
VH: B1 VH with K12R, S16A, A53P, I70M, A72R, T76I, S85R, E89D
VL: B1 VL with R8A, V18I, K32Y, Y34R, P61S, D62N, K97R
notes: Fab
Consider B2, for which, in assay [6], the IC50, Activin SMAD RGA worked out at 0.4 nM; the IC50, Myostatin SMAD RGA was 0.78 nM; the IC50 fold difference (Fab:IgG), Activin SMAD RGA is 4.6 fold; the IC50 fold difference (Fab:IgG), Myostatin SMAD RGA was determined as 5.1 fold. The molecule also yielded a dissociation constant Kd in assay [7] of 0.157 nM. The Kd in [8] is 0.006 nM. Moreover, the “Fold difference (Fab:IgG)” value in assay [9] was 3.8 fold. Moreover, the “Fold difference (Fab:IgG)” value in [10] came out at 1.1 fold.

B3: Fasnetsküchla Fab (Fab, V domains shown)
VH: B1 VH with S16A, I70M, A72R, T76I, S85R, E89D
VL: B1 VL with R8A, V18I, K32A, L48P, K55R, E57P, P61S, D62N
notes: Fab
On to B3, for which, in assay [6], the IC50, Activin SMAD RGA is 1.21 nM; the IC50, Myostatin SMAD RGA was 2.32 nM; the IC50 fold difference (Fab:IgG), Activin SMAD RGA amounted to 2.8 fold; the IC50 fold difference (Fab:IgG), Myostatin SMAD RGA turned out to be 4.8 fold. The molecule further registered a Kd in assay [7] of 0.114 nM. For the same molecule, the Kd in [8] is 0.026 nM. For the same molecule, the “Fold difference (Fab:IgG)” value in [9] worked out at 3.9 fold. The “Fold difference (Fab:IgG)” value in assay [10] was determined as 3.1 fold.

B4: Biiramooscht Fab (Fab, V domains shown)
VH: B1 VH with S16A, A53P, I70M, A72R, T76I, S85R, E89D
VL: B1 VL with R8A, V18I, K32Y, P61S, D62N, K97A
notes: Fab
Consider B4, for which, in assay [6], the IC50, Activin SMAD RGA was determined as 1.58 nM; the IC50, Myostatin SMAD RGA is 2.09 nM; the IC50 fold difference (Fab:IgG), Activin SMAD RGA came to 7.4 fold; the IC50 fold difference (Fab:IgG), Myostatin SMAD RGA stood at 7.9 fold. For the same molecule, in assay [7], the affinity, expressed as Kd, was 0.145 nM. The molecule further registered a dissociation constant (Kd) in assay [8] of 0.021 nM. The “Fold difference (Fab:IgG)” value in [9] was determined as 5.2 fold. The “Fold difference (Fab:IgG)” value in assay [10] came out at 4.4 fold.
